From publication PMC11283454

Tested on: hATE1 WT (human)
Test: EMSA

tRNAArg acceptor arm
Kd: 1.6 µM
